{"source": "paper PMC4108472", "about": "“Characterization of a Novel BCHE “Silent” Allele: Point Mutation (p.Val204Asp) Causes Loss of Activity and Prolonged Apnea with Suxamethonium” (PLoS ONE, 2014)", "proteins": {"B1": {"name": "Butyrylcholinesterase (usual, wild-type) of human plasma (enzyme, human (endogenous in plasma), UniProt P06276 29-602, looked up)", "chain": "EDDIIIATKNGKVRGMNLTVFGGTVTAFLGIPYAQPPLGRLRFKKPQSLTKWSDIWNATKYANSCCQNIDQSFPGFHGSEMWNPNTDLSEDCLYLNVWIPAPKPKNATVLIWIYGGGFQTGTSSLHVYDGKFLARVERVIVVSMNYRVGALGFLALPGNPEAPGNMGLFDQQLALQWVQKNIAAFGGNPKSVTLFGESAGAASVSLHLLSPGSHSLFTRAILQSGSFNAPWAVTSLYEARNRTLNLAKLTGCSRENETEIIKCLRNKDPQEILLNEAFVVPYGTPLSVNFGPTVDGDFLTDMPDILLELGQFKKTQILVGVNKDEGTAFLVYGAPGFSKDNNSIITRKEFQEGLKIFFPGVSEFGKESILFHYTDWVDDQRPENYREALGDVVGDYNFICPALEFTKKFSEWGNNAFFYYFEHRSSKLPWPEWMGVMHGYEIEFVFGLPLERRDNYTKAEEILSRSIVKRWANFAKYGNPNETQNNSTSWPVFKSTEQKYLTLNTESTRIMTKLRAQQCRFWTSFFPKVLEMTGNIDEAEWEWKAGFHRWNNYMMDWKNQFNDYTSKKESCVGL", "notes": "Butyrylcholinesterase, human, Swissprot P06276, as it circulates in plasma; Subunit of the plasma enzyme; Plasma of the heterozygous family members also holds variant subunits (p.Val204Asp; p.Asp70Gly-p.Ala539Thr); also called BChE; pseudocholinesterase; source: endogenous, human plasma (genotype UU control and family members' plasma)"}}, "target": "the molecule itself", "experiment": "native gel or EMSA; nondenaturing gradient gel (4–30%) of plasma samples (5 µL/lane), bands stained for BChE activity with BTC as the substrate", "note": "“And” between values parts separate entries of the source, which are not always exact repeats. Equal entries are not always repeated.", "data": [{"protein": "B1", "values": [{"measurement": "stoichiometry N", "result": "4 and 2"}]}]}
